Test results as given in patent US20260242478A1 (published 2026).
Where no end group is shown, it is not given here.

B1: Phage-503 (peptide, not shown: large carriers)
peptide: YCDGHLPEYMEKCL
notes: Clonal phage supernatant of the Peptide-87 optimisation library
B2: Phage-500 (peptide, not shown: large carriers)
peptide: YCDGHLPQYMEKCL
notes: as for B1
B3: Phage-505 (peptide, not shown: large carriers)
peptide: YCDGHLPEYMNKCL
notes: as for B1
B4: Phage-501 (peptide, not shown: large carriers)
peptide: YCAGHAPEYMEKCL
notes: as for B1
B5: Phage-502 (peptide, not shown: large carriers)
peptide: YCDGHSPEYMWKCL
notes: as for B1
B6: Phage-504 (peptide, not shown: large carriers)
peptide: YCEGHLPQYMWKCL
notes: as for B1
B7: Phage-512 (peptide, not shown: large carriers)
peptide: YCEGHLPQYMQKCL
modifications: cysteine pairing not given here; also: displayed on phage as fusion to pIII, linker, pIII sequence and order not given here
notes: as for B1

What follows are binders tested against T1, Anti-PSMA Fab (biotinylated (site not stated)) (assay: clonal phage ELISA on captured biotinylated PSMA Fab, anti-M13 HRP detection).
T1 construct: Biotinylated PSMA Fab captured on neutravidin plates in the phage ELISA; also called 006 PSMA Fab

Going from VVVQCIPEWMCNGF [Phage-3981] to SYQLCKPEWMCHGW [Phage-3982], the “Phage binding ELISA signal, Anti-PSMA Fab” value falls from 0.729 to 0.715.

First: YERMCSPEWMCWDF [Phage-3983]
Second: KHILCEPVWMCVGF [Phage-3984]
The “Phage binding ELISA signal, Anti-PSMA Fab” value of the first is higher: 0.704 for the first, 0.697 for the second.

Going from VENLCRPSWMCEGF [Phage-3985] to NGPMCVPQWMCDGT [Phage-3986], the “Phage binding ELISA signal, Anti-PSMA Fab” value falls from 0.696 to 0.691.

Going from HVQRCVPQWMCVGF [Phage-3987] to STPYCVPDWMCAGF [Phage-3988], the “Phage binding ELISA signal, Anti-PSMA Fab” value falls from 0.686 to 0.683.

Going from MTDRCKPEWMCFGF [Phage-3989] to LLIVCKPPWMCAGS [Phage-3990], the “Phage binding ELISA signal, Anti-PSMA Fab” value falls from 0.677 to 0.666.

Going from SVMNCVPLRMCEGF [Phage-3991] to VFKMCVPMWMCQVS [Phage-3992], the “Phage binding ELISA signal, Anti-PSMA Fab” value falls from 0.644 to 0.635.

Compared with IAVKCMPAWMCVGI [Phage-3993], EWPICRPSWMCDDF [Phage-3994] is lower in “Phage binding ELISA signal, Anti-PSMA Fab” value: 0.632 for the first, 0.63 for the second.

These binders were tested against Anti-CD28 Fab (SEQ ID NOs: 696, 697) (assay: phage binding ELISA on captured anti-CD28 Fab pre-incubated with CD28 antigen as competitor).
Sequence of Anti-CD28 Fab (SEQ ID NOs: 696, 697) (VH, as listed by the source, chain 1 of 2): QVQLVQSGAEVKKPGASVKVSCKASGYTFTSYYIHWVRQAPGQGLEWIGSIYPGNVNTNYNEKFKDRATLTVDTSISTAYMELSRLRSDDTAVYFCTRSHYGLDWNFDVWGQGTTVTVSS
Sequence of Anti-CD28 Fab (SEQ ID NOs: 696, 697) (VL, as listed by the source, chain 2 of 2): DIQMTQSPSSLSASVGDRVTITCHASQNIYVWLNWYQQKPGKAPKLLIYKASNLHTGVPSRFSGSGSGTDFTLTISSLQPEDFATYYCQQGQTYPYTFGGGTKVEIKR
Protocol: (§1) After panning, phage infected bacteria were plated out and colonies picked into 96 well blocks. Clonal phage was then amplified and separated from bacterial cells via centrifugation.
(§2) Clonal phage were harvested as crude supematants and screened via standard ELISAs. […] Prior to the addition of clonal phage, wells were incubated with blocking buffer and CD28 antigen or blocking buffer alone. Without washing or aspirating, clonal phage supematants were then added to the wells and incubated for a short time. Wells were then washed followed by detection of bound phage using a horse radish conjugated anti-M13 antibody. Clonal phage of interest were then sent for sequence analysis.

Compared with B1, B2 is higher in “Anti-CD28 Fab signal in the presence of CD28 (phage binding ELISA)” value: 0.1 for the first, 0.11 for the second.

First: B3
Second: B4
The “Anti-CD28 Fab signal in the presence of CD28 (phage binding ELISA)” value of the first is higher: 0.13 for the first, 0.09 for the second.

First: B5
Second: B6
The “Anti-CD28 Fab signal in the presence of CD28 (phage binding ELISA)” value of the first is lower: 0.09 for the first, 0.17 for the second.

With B7 the “Anti-CD28 Fab signal in the presence of CD28 (phage binding ELISA)” value was 0.12.

What follows are binders tested against T2, anti-CD28 Fab (SEQ ID NOs: 696, 697) (assay: phage ELISA; biotinylated anti-CD28 Fab on neutravidin plate, clonal phage supernatant, anti-M13 HRP detection;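 further: crude supernatants of single phage clones picked after panning were screened for binding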).
T2 construct: In the phage ELISA the Fab was biotinylated and captured on neutravidin coated plates
T2 sequence (VH, as listed by the source, chain 1 of 2): as the sequence (VH, as listed by the source, chain 1 of 2) above
T2 sequence (VL, as listed by the source, chain 2 of 2): as the sequence (VL, as listed by the source, chain 2 of 2) above

Compared with DCPWLSGFSRPLLC (also called Peptide-93) [Phage-472], YCAGMSTIQLWLKC (also called Peptide-94) [Phage-473] is higher in “Phage binding ELISA, Anti-CD28 Fab (SEQ ID NOs: 696, 697) signal” value: 1.27 for the first, 2.16 for the second.

First: YCAGHMPQYEVKCL (also called Peptide-95) [Phage-474]
Second: YCAGHTEEHYVKCM (also called Peptide-96) [Phage-475]
The “Phage binding ELISA, Anti-CD28 Fab (SEQ ID NOs: 696, 697) signal” value of the first is lower: 0.22 for the first, 0.62 for the second.

First: YCMGHSHEHIWKCL (also called Peptide-97) [Phage-476]
Second: YCAGHSHEYLAKCE (also called Peptide-98) [Phage-477]
The “Phage binding ELISA, Anti-CD28 Fab (SEQ ID NOs: 696, 697) signal” value of the first is higher: 0.87 for the first, 0.86 for the second.

First: YCEGHSPEYILKCL [Phage-478]
Second: YCEGHRPEYILKCL [Phage-479]
The “Phage binding ELISA, Anti-CD28 Fab (SEQ ID NOs: 696, 697) signal” value of the first is higher: 1.75 for the first, 1.27 for the second.

First: YCEGHEGIYFWKCL [Phage-480]
Second: YCEGHLPEYIEKCL (also called Peptide-120) [Phage-481]
The “Phage binding ELISA, Anti-CD28 Fab (SEQ ID NOs: 696, 697) signal” value of the first is higher: 2.07 for the first, 2.06 for the second.

First: YCEGHAPEYIAKCL [Phage-482]
Second: YCEGHAPEYIRKCL [Phage-483]
The “Phage binding ELISA, Anti-CD28 Fab (SEQ ID NOs: 696, 697) signal” value of the first is higher: 2.15 for the first, 1.63 for the second.

Going from YCEGHAPEYIWKCL [Phage-484] to YCEGHSQENIWKCL [Phage-485], the “Phage binding ELISA, Anti-CD28 Fab (SEQ ID NOs: 696, 697) signal” value falls from 1.63 to 1.41.

These binders were tested against T1, Anti-PSMA Fab (assay: clonal phage ELISA on captured biotinylated PSMA Fab pre-incubated with PSMA antigen as competitor, anti-M13 HRP detection).
Protocol: Clonal phage were harvested as crude supernatants and screened via standard ELISAs. […] Prior to the addition of clonal phage. wells were incubated with blocking buffer and PSMA antigen or blocking buffer alone. Without washing or aspirating, clonal phage supernatants were then added to the wells and incubated for a short time. Wells were then washed followed by detection of bound phage using a horse radish conjugated anti-M13 antibody.

First: VVVQCIPEWMCNGF [Phage-3981]
Second: SYQLCKPEWMCHGW [Phage-3982]
The “Phage binding ELISA signal, Anti-PSMA Fab in presence of PSMA antigen” value (from here on “Phage binding ELISA signal … of PSMA antigen”) of the first is lower: 0.0683 for the first, 0.0692 for the second.

First: YERMCSPEWMCWDF [Phage-3983]
Second: KHILCEPVWMCVGF [Phage-3984]
The “Phage binding ELISA signal … of PSMA antigen” value of the first is higher: 0.0861 for the first, 0.0708 for the second.

First: VENLCRPSWMCEGF [Phage-3985]
Second: NGPMCVPQWMCDGT [Phage-3986]
The “Phage binding ELISA signal … of PSMA antigen” value of the first is higher: 0.112 for the first, 0.0558 for the second.

Compared with HVQRCVPQWMCVGF [Phage-3987], STPYCVPDWMCAGF [Phage-3988] is lower in “Phage binding ELISA signal … of PSMA antigen” value: 0.119 for the first, 0.0729 for the second.

First: MTDRCKPEWMCFGF [Phage-3989]
Second: LLIVCKPPWMCAGS [Phage-3990]
The “Phage binding ELISA signal … of PSMA antigen” value of the first is higher: 0.142 for the first, 0.0992 for the second.

Going from SVMNCVPLRMCEGF [Phage-3991] to VFKMCVPMWMCQVS [Phage-3992], the “Phage binding ELISA signal … of PSMA antigen” value falls from 0.0968 to 0.0687.

Compared with IAVKCMPAWMCVGI [Phage-3993], EWPICRPSWMCDDF [Phage-3994] is lower in “Phage binding ELISA signal … of PSMA antigen” value: 0.0897 for the first, 0.0604 for the second.

The binders below were run against Anti-CD28 Fab (SEQ ID NOs: 696, 697) (assay: phage binding ELISA; biotinylated anti-CD28 Fab captured on neutravidin plate, clonal phage supernatant, anti-M13 HRP detection).
Protocol: as §1, §2

Compared with B1, B2 is higher in “Anti-CD28 Fab signal (phage binding ELISA)” value: 2.44 for the first, 2.47 for the second.

Compared with B3, B4 is higher in “Anti-CD28 Fab signal (phage binding ELISA)” value: 2.43 for the first, 2.45 for the second.

B5 and B6 are the same in “Anti-CD28 Fab signal (phage binding ELISA)” value: 2.44 for the first, 2.44 for the second.

In the case of B7, the “Anti-CD28 Fab signal (phage binding ELISA)” value is reported as 2.39.

What follows are binders tested against T2, anti-CD28 Fab (SEQ ID NOs: 696, 697) (assay: phage ELISA; biotinylated anti-CD28 Fab on neutravidin plate, wells pre-incubated with CD28 antigen as competitor, anti-M13 HRP detection).
Protocol: as §1, §2

Going from DCPWLSGFSRPLLC (also called Peptide-93) [Phage-472] to YCAGMSTIQLWLKC (also called Peptide-94) [Phage-473], the “Phage binding ELISA, Anti-CD28 Fab signal in the presence of CD28” value rises from 0.07 to 0.09.

First: YCAGHMPQYEVKCL (also called Peptide-95) [Phage-474]
Second: YCAGHTEEHYVKCM (also called Peptide-96) [Phage-475]
The “Phage binding ELISA, Anti-CD28 Fab signal in the presence of CD28” value of the first is lower: 0.06 for the first, 0.07 for the second.

Going from YCMGHSHEHIWKCL (also called Peptide-97) [Phage-476] to YCAGHSHEYLAKCE (also called Peptide-98) [Phage-477], the “Phage binding ELISA, Anti-CD28 Fab signal in the presence of CD28” value falls from 0.07 to 0.06.

YCEGHSPEYILKCL [Phage-478] and YCEGHRPEYILKCL [Phage-479] are the same in “Phage binding ELISA, Anti-CD28 Fab signal in the presence of CD28” value: 0.06 for the first, 0.06 for the second.

First: YCEGHEGIYFWKCL [Phage-480]
Second: YCEGHLPEYIEKCL (also called Peptide-120) [Phage-481]
The “Phage binding ELISA, Anti-CD28 Fab signal in the presence of CD28” value of the first is lower: 0.06 for the first, 0.08 for the second.

Going from YCEGHAPEYIAKCL [Phage-482] to YCEGHAPEYIRKCL [Phage-483], the “Phage binding ELISA, Anti-CD28 Fab signal in the presence of CD28” value falls from 0.09 to 0.08.

YCEGHAPEYIWKCL [Phage-484] and YCEGHSQENIWKCL [Phage-485] are the same in “Phage binding ELISA, Anti-CD28 Fab signal in the presence of CD28” value: 0.07 for the first, 0.07 for the second.
